Source: patent publication US20150025225A1 (SHIONOGI, published 2015)
Residue numbers refer to the chain shown, from its start. Read-outs that look alike come from different tables or passages of the source. Blank lines part the entries; values can stand above or below the binder they belong to.

Experiments:
Test in all cases: ELISA-type titration, A450 against antibody concentration; protocol not described in the text
[1] = biological target: T1, human EL[331-459]-mouse EL-C2 tag (human/mouse chimera, UniProt Q9WVG5 21-500 (mouse entry))
T1 construct: used as heparin extract of transfected HEK293F cells; also called human-mouse chimera EL; Human-Mouse chimeric EL
T1 chain: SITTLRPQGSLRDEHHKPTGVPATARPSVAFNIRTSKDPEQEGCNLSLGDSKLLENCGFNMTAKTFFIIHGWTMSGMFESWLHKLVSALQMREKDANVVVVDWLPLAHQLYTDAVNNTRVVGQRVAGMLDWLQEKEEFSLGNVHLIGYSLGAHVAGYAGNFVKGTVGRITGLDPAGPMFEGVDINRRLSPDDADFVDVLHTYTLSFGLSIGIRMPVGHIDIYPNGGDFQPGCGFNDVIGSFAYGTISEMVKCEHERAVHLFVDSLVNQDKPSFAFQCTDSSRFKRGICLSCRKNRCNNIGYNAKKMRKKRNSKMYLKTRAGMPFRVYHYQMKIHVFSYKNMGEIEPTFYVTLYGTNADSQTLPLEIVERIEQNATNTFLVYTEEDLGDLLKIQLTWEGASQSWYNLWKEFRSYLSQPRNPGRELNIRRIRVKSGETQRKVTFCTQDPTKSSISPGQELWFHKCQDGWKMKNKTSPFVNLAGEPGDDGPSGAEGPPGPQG

[2] = biological target: T2, Baboon EL-C2 tag (baboon, UniProt Q9Y5X9 21-500 (human entry), limits assumed)
T2 construct: used as heparin extract of transfected HEK293F cells; also called baboon EL heparin extract
T2 chain: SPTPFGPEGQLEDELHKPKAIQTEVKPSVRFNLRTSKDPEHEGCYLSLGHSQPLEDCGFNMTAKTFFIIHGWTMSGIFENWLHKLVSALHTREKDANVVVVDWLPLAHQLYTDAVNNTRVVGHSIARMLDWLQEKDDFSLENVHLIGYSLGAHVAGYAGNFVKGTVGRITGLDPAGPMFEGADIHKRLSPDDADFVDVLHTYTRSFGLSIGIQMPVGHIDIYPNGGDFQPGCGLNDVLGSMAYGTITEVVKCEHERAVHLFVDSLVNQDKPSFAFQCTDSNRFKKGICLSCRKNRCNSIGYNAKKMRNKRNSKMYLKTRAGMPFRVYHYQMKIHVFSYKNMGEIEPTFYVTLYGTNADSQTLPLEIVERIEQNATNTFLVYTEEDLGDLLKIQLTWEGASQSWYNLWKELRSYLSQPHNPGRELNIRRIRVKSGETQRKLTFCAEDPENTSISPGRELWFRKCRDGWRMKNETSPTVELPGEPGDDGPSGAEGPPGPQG

[3] = biological target: T3, cynomolgus monkey EL-C2 tag (cynomolgus monkey, UniProt Q9Y5X9 21-500 (human entry), limits assumed)
T3 construct: used as heparin extract of transfected HEK293F cells; also called cynomolgus EL
T3 chain: T2 chain with E12A, E141G

[4] = biological target: T4, mouse EL-C2 tag (mouse, UniProt Q9WVG5 21-500)
T4 construct: used as heparin extract of transfected HEK293F cells
T4 sequence: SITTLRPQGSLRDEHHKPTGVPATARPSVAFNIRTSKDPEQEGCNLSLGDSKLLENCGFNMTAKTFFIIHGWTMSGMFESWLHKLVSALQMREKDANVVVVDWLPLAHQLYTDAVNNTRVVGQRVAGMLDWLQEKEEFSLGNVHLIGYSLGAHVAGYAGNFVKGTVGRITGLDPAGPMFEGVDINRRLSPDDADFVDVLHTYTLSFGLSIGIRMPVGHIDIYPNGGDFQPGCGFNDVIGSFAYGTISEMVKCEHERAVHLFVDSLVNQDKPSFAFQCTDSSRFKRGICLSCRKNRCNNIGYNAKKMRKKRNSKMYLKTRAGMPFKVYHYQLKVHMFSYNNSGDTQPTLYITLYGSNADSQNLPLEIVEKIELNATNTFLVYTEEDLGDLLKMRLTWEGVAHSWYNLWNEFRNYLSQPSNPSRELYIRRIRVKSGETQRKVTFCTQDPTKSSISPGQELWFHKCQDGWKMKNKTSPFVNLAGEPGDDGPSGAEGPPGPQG

[5] = biological target: T1, human EL[331-459]-mouse EL-C2 tag
[6] = biological target: T5, rabbit EL-C2 tag (rabbit)
T5 construct: used as cell lysate or heparin extract; also called rabbit EL lysate; rabbit EL enzyme solution
T5 chain: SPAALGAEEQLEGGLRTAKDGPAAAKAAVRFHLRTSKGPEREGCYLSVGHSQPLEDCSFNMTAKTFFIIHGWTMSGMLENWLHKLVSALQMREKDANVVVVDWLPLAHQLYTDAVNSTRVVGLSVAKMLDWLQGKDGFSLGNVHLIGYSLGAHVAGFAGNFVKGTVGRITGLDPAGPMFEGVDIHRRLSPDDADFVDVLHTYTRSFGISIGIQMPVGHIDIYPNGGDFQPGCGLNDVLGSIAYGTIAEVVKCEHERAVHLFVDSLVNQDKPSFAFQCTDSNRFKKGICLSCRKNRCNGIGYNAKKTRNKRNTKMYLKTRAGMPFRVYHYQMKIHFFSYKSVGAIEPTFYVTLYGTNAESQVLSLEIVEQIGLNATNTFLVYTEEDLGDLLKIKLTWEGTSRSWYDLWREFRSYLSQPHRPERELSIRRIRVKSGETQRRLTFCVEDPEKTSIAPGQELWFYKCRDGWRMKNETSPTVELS

EC50 (read off the curve) [1]: ~40 ng/mL
B1: 12B10 antibody (antibody, IgG2a, V domains shown)
VH: QVTLKESGPGILKPSQTLSLTCSFSGFSLSTSGMGVGWIRQPSGKGLEWLAHIWWNDEKYYNPSLKSQLTISKDTSRNQVFLKITSVDTADTATYYCARSYDGSPFPSWGQGTLVTVSA
VL: DIQMTQSPSSLSASLGGKVTITCKASQDINKYIAWFQHKPGKGPRLLMAYPFTLQPGIPSRFSGNGSGRDYSFSISNLEPEDIATYYCLQYDNLLWTFGGGTRLEIK

EC50 (read off the curve) [2]: ~10 ng/mL
EC50 (read off the curve) [3]: ~6 ng/mL
binding result [4]: binds
EC50 (read off the curve) [5]: ~10 ng/mL
EC50 (read off the curve) [6]: ~7 ng/mL
B2: 47B2 antibody (antibody, IgG2a, V domains shown)
VH: QVALKESGPGILQPSQTLSLTCSFSGFSLSTSGMGVGWIRQPSGKGLEWLAHIWWHGNKYYSTGLKSRLTISKDTSNNQVFLKIASVDTADTATYYCARISAGYPLDYWGQGTSVTVSS
VL: DIQMTQSPSSLSASLGGKVTITCKASQDINKYIVWYQHKPGKGPRLLIHYTSTLQPGFPSRFSGSGSGRDYSLSITNLEPEDIATYYCLQYDNLLWTFGGGTKLEIK
